Test results: the supplement of paper PMC12764529
± gives the half width of the 95% confidence interval.

Assay: folding stability dG unfold from trypsin proteolysis; higher = more stable
In short: (§1)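 Designed mini-proteins (under 80 residues, no cysteine) in a PA-tagged cDNA display construct were digested with trypsin and chymotrypsin. Each protease was used at 11 concentrations (threefold dilutions) plus a no-protease condition, followed by sequencing. K50 was inferred by Bayesian fitting of sequencing counts, and unfolding free energy was derived against a sequence-predicted unfolded-state K50 and a shared folded-state K50, per protease or combined. Only designs with AlphaFold2 dimer inter-PAE above 15 were kept.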

Row | Sequence | folding stability dG unfold [kcal/mol]
1 | SAGMPLYRIRVHPDIPDRIEITEVDAEDLPPGAVLKIRFRETGETVEVPLSDLDELLALPGIEEVELVSAGG [r19_302_TrROS_Hall] | 0.305 ± 0.077
2 | SAGGYKFTIIARFDSVEEAKEWVEEIIRDIFPDNGIEVEVEVETDPENGGVYVKATIEVPPPDPDDFSAGGS [r8_17_TrROS] | 2.98 ± 0.17
3 | SKLVEKIAEEFGISSAMPHPDGQFMIMFPDGYMIKINIEIDEVKPKPDGKPELDLDIEIEIIPMPPPDDMSA [r9_648_TrROS] | 2.05 ± 0.067
4 | SKPDAPKIVELLRELFPDLEITSVSYDPETGTYTVTFPDGVVAEVHVDPNGNVHIVLRTPTSERTFTLPVSA [r9_304_TrMRF] | 2.68 ± 0.1
5 | SAGGSAGGSAGGMPTTATITLPGGETLTVPVPVDPSTGTVSEEEIRALVGPEFEFEILGGSAGGSAGGSAGG [r7_492_JUSTAS] | 0.779 ± 0.04
6 | SAPSPKTPETLVFLSEEESEVVEERLSPSGKPFLVKRKRRFLRYRYVDEDGNVTSVGEREEPVEEELVLSAG [r14_934_JUSTAS] | 0.985 ± 0.094
7 | SAGGSADNIEFKFPGIEEVTVWPDKIMFKLPNGYYYVITINNIDEIEIIEVIPPVPPPPPEDPDDKSAGGSA [r15_393_TrROS] | 2.38 ± 0.39
8 | SAGMKAYNIKELKIEKIEKKGNKIKIKISGKGKFYFKTFSNGSAIIYIKKTNKAYYIDSNGKIVYIKDTSAG [r5_348_TrMRF] | 1.75 ± 0.12
9 | SAGKPKKKIKIKLYNVDTGEEIEIEVTVEELKKLLEKLGFEVVKIEYDEETGEVTIYVKVDGYYLEIEESAG [r5_521_TrROS_Hall] | 2.63 ± 0.16
10 | SAGGSAGGSAGGGMTTTKTEVSFSPAGGLVTTKSTERLPGTGELKEVTSVTPLASSGTTSAGGSAGGSAGGS [r10_296_JUSTAS] | 0.0156 ± 0.034
11 | SAGGSAGGSADIKVEVEYDKSNGYMWVKIKLPGKDIPIWIPPNDSPEQMEEKAIDFAKYLLKSAGGSAGGSA [r18_266_TrROS] | 0.592 ± 0.12
12 | SAGGPYYEWEIKLPDNKTISITMRRNPENGRPQHTVTIHDPEKGKPVKEHPFDSPEEAEELIEEGLLSAGGS [r8_450_TrROS] | -0.0517 ± 0.16
13 | SAGLKIVEDIRKKLEEEGYDVKVKYEIKPEPKDGKYIITIEVTIKDEKGNEVPIGKETIVIPLEEYEKSSAG [r5_413_JUSTAS] | 1.27 ± 0.18
14 | SAGGSAGGSAGGIAEALKAAFPDEGVEVVSIHPDGKVEVRVDGTPELREKVEKAVKELLSSAGGSAGGSAGG [r11_418_TrMRF] | 1.08 ± 0.087
15 | SAGGSAGGSATLTLELEIEVDGVRFRVRAELRLDEDGRLHLRVEIEVEPLPPPPPLVAEGEELSAGGSAGGS [r20_30_TrROS_Hall] | 2.88 ± 0.14
16 | SAGGMTIITTTFTLKLPSNGKVVTVTKTYNLSPEEGKKEAEKIAKEIAEELKEPTEILEIKITYYPESAGGS [r16_140_JUSTAS] | 1.26 ± 0.092
17 | SAGGSAKKPKWIPIKIKLPGSLEEAREWAEEIAKWLAKQNGDIKIDAIKYERDPNGHVEVTIQVRVSAGGSA [r15_718_TrROS] | 2.36 ± 0.066
18 | SADEALRRLLENMTPEELAALLAPAVPGPPVEVLVVPREVLPEVLRRLREEFDVEFEEEGDFVRIVVRGSAG [r14_7_TrMRF] | 2.28 ± 0.029
19 | SAGGSVFESEKDLRVEVYKIKVGTTLGKEKNGKPKKPKFKEKEVLVVKVEVPLEDGTTLSAEFTFGSAGGSA [r2_218_TrMRF] | 1.25 ± 0.13
20 | SSAEEIVEKLKKELEEKLPEDYKITSVTLTKSPDGIVTAPMTIKSSDGVESTVTVTYDLKTGKITIEVNSSA [r9_219_JUSTAS] | 3.42 ± 0.25
21 | SAGGMPVVKVTLRVELPETGETVDVTLYVDPSVPEEYLERLVRRVAEEVARLLRLPPPPVPPRPDELSAGGS [r16_191_TrMRF] | 3.29 ± 0.12

Assay: folding stability dG unfold (combined trypsin and chymotrypsin); higher = more stable
In short: as §1

Row | Sequence | folding stability dG unfold [kcal/mol]
22 | SAGGGSMKTIELTVTNPATGETVTVTLELDPSVSEEEVEARIKETEEAVEKELLAPEPPLAPTPARASAGGS [r16_191_JUSTAS] | 0.765 ± 0.062
23 | SAGGMSKEELAKKLAKELAEKLGIKEIKEIKIEKKKDKVKITIVFKENKKIIEIELKDGKIVKIKEKSAGGS [r16_171_TrROS_Hall] | 3.26 ± 0.16
24 | MIPLTLEYDPEKKVIRLKTPDGKPVIVEAGDKGYRVIIYDPKTGKPTVIPVTEKELLDLAKNPAFNLDLAAS [r1_18_TrMRF] | 1.65 ± 0.059
25 | SPLTAEQIKKLLRELFPNAKIVSIEYDKENKTVTITFEDGLKIEVTVTEDGRVIIRITLPGKEITIEIEVSA [r9_304_TrROS_Hall] | 4.44 ± 0.22
26 | SPGWYKVDIEIPMKEIQEEFGDPDKPITADRIKERVKKIAETIGFEVRDVEIEMDPNGWVRVTVTIPVKNSA [r9_52_TrROS] | 3.64 ± 0.19
27 | SAMKIIKINGKEVLLVKNENGEILIFVKNKKTNKYYLVKIEIKDGKIKIVEVKPIKTYSLEELLKEELLSAG [r14_384_TrROS_Hall] | 3.42 ± 0.11
28 | GMPYTVDVVIEEAEDGVIIPIKLSVDGALVAEAVAPVDPVTKKVVIKPGAASKEALDVALEKLKELGIEPGS [r1_455_TrMRF] | 0.162 ± 0.26
29 | SAGGSAGGSAGGAEEIARKLAEETGKKVTIRIRLPNGEVYEIELDEPLEEIEGAEIVEIESAGGSAGGSAGG [r7_998_TrROS_Hall] | 1.43 ± 0.061
30 | SAGGIWIPVPNADWAVDFIIEFIDQFGPGAKIDKITVYNGGKEREITPGEPPKIPPGSWFEIDLEPKSAGGS [r16_267_TrROS] | 0.984 ± 0.075
31 | SAGAEVEVVELTDEEIEALAKELNPDVTIEVVVVRVPPPPEKVEVRDPETGETVTLTVTPDGEIRAEKSAGG [r19_70_TrROS_Hall] | 0.0774 ± 0.35
32 | SAGGSAGGSAGKMLLIEIEVDGKKYLIEIEVPEGEEITPEELAKLLGIPNVKVKVYELEESAGGSAGGSAGG [r11_219_TrROS_Hall] | 3.11 ± 0.13
33 | SSSSTLVSSYTLTLKDEKGNEITLKVDVYKFPSGSYRVEITRPDGTVTEYEFPASEPPTEEKIKELALKKSA [r9_616_JUSTAS] | > 6
34 | SAGGSERTIMIPVEPGMSPEQIADEIKAILRELGPGRPIEIDDVHPGGWVKIKINNKPIKIHIMWPSAGGSA [r2_102_TrROS] | 1.32 ± 0.1
35 | SAGGSAGGLPPGQSIEIFIFSMFPTPNGNLNLEMIQITIRIRPVVRKPDNGGEKYVPPDDPDLASAGGSAGG [r6_405_TrROS] | 3.97 ± 0.16
36 | SAGGSAMIVIPVDPNDPAAEKTVAEAIAAGKDVIIRSPSGKYTFYKPDGSKKELSSEEEIKKAGLESAGGSA [r15_94_JUSTAS] | 0.0288 ± 0.19
37 | SAGGSAGGSAGGSKPKMYILKIKIKVEVKYDKETNEIVEEEIEIEIEIIEVKPGEKLELSAGGSAGGSAGGS [r4_175_TrROS_Hall] | 2.52 ± 0.35
38 | SAGGSAIDPRLLKLPKVKVEILSVEPVTGEDDKPFFVAKVKTDLEPGFYAYIILDPETGKIVKVFDSAGGSA [r15_66_TrMRF] | 1.4 ± 0.072
39 | SMTVVTVEKTPDGGVTITVYVPETGEEVEIPVTDPEVQKKATEDPNTTVKVPKEVLESFYPDRITSLSYTSA [r9_390_JUSTAS] | 0.0747 ± 0.19
40 | SAGGMVLVRIRVDMSPEERKRLEEELRKRVTEVRYLPEDEDVVEVRVSPEALAELPEERITEVELLPSAGGS [r16_328_TrROS_Hall] | -0.0298 ± 0.097
41 | SAGGSAGGSAGGLPNIPGFVLLETYSETFNVPLPENRTATITKTLILHPNALLESYSINPSAGGSAGGSAGG [r7_945_TrMRF] | -0.251 ± 0.27
42 | SAGMVKAKLKVIPVTVDGKPKLYVKVELEIPGGPKFELVFETGSPEKAKELLEKLGLKVKDEDIEIEESSAG [r5_233_TrMRF] | 3.34 ± 0.18

Row | Sequence | folding stability dG unfold [kcal/mol]
43 | SAGMPLYRIRVHPDIPDRIEITEVDAEDLPPGAVLKIRFRETGETVEVPLSDLDELLALPGIEEVELVSAGG [r19_302_TrROS_Hall] | 0.841 ± 0.12
44 | SAGGYKFTIIARFDSVEEAKEWVEEIIRDIFPDNGIEVEVEVETDPENGGVYVKATIEVPPPDPDDFSAGGS [r8_17_TrROS] | 4.01 ± 0.3
45 | SKLVEKIAEEFGISSAMPHPDGQFMIMFPDGYMIKINIEIDEVKPKPDGKPELDLDIEIEIIPMPPPDDMSA [r9_648_TrROS] | 2.39 ± 0.19
46 | SKPDAPKIVELLRELFPDLEITSVSYDPETGTYTVTFPDGVVAEVHVDPNGNVHIVLRTPTSERTFTLPVSA [r9_304_TrMRF] | 2.55 ± 0.07
47 | SAGGSAGGSAGGMPTTATITLPGGETLTVPVPVDPSTGTVSEEEIRALVGPEFEFEILGGSAGGSAGGSAGG [r7_492_JUSTAS] | 1.24 ± 0.068
48 | SAPSPKTPETLVFLSEEESEVVEERLSPSGKPFLVKRKRRFLRYRYVDEDGNVTSVGEREEPVEEELVLSAG [r14_934_JUSTAS] | 0.672 ± 0.087
49 | SAGGSADNIEFKFPGIEEVTVWPDKIMFKLPNGYYYVITINNIDEIEIIEVIPPVPPPPPEDPDDKSAGGSA [r15_393_TrROS] | 2.4 ± 0.34
50 | SAGMKAYNIKELKIEKIEKKGNKIKIKISGKGKFYFKTFSNGSAIIYIKKTNKAYYIDSNGKIVYIKDTSAG [r5_348_TrMRF] | 1.76 ± 0.27
51 | SAGKPKKKIKIKLYNVDTGEEIEIEVTVEELKKLLEKLGFEVVKIEYDEETGEVTIYVKVDGYYLEIEESAG [r5_521_TrROS_Hall] | 3.41 ± 0.28
52 | SAGGSAGGSAGGGMTTTKTEVSFSPAGGLVTTKSTERLPGTGELKEVTSVTPLASSGTTSAGGSAGGSAGGS [r10_296_JUSTAS] | 0.622 ± 0.081
53 | SAGGSAGGSADIKVEVEYDKSNGYMWVKIKLPGKDIPIWIPPNDSPEQMEEKAIDFAKYLLKSAGGSAGGSA [r18_266_TrROS] | 0.791 ± 0.27
54 | SAGGPYYEWEIKLPDNKTISITMRRNPENGRPQHTVTIHDPEKGKPVKEHPFDSPEEAEELIEEGLLSAGGS [r8_450_TrROS] | 0.287 ± 0.35
55 | SAGLKIVEDIRKKLEEEGYDVKVKYEIKPEPKDGKYIITIEVTIKDEKGNEVPIGKETIVIPLEEYEKSSAG [r5_413_JUSTAS] | 2.28 ± 0.16
56 | SAGGSAGGSAGGIAEALKAAFPDEGVEVVSIHPDGKVEVRVDGTPELREKVEKAVKELLSSAGGSAGGSAGG [r11_418_TrMRF] | 0.798 ± 0.18
57 | SAGGSAGGSATLTLELEIEVDGVRFRVRAELRLDEDGRLHLRVEIEVEPLPPPPPLVAEGEELSAGGSAGGS [r20_30_TrROS_Hall] | 4.05 ± 0.3
58 | SAGGMTIITTTFTLKLPSNGKVVTVTKTYNLSPEEGKKEAEKIAKEIAEELKEPTEILEIKITYYPESAGGS [r16_140_JUSTAS] | 1.7 ± 0.27
59 | SAGGSAKKPKWIPIKIKLPGSLEEAREWAEEIAKWLAKQNGDIKIDAIKYERDPNGHVEVTIQVRVSAGGSA [r15_718_TrROS] | 3.36 ± 0.086
60 | SADEALRRLLENMTPEELAALLAPAVPGPPVEVLVVPREVLPEVLRRLREEFDVEFEEEGDFVRIVVRGSAG [r14_7_TrMRF] | 2.73 ± 0.04
61 | SAGGSVFESEKDLRVEVYKIKVGTTLGKEKNGKPKKPKFKEKEVLVVKVEVPLEDGTTLSAEFTFGSAGGSA [r2_218_TrMRF] | 2.52 ± 0.26
62 | SSAEEIVEKLKKELEEKLPEDYKITSVTLTKSPDGIVTAPMTIKSSDGVESTVTVTYDLKTGKITIEVNSSA [r9_219_JUSTAS] | 4.73 ± 0.22
63 | SAGGMPVVKVTLRVELPETGETVDVTLYVDPSVPEEYLERLVRRVAEEVARLLRLPPPPVPPRPDELSAGGS [r16_191_TrMRF] | 3.52 ± 0.095
